“And” between values parts separate entries of the source, which are not always exact repeats. Equal entries are not always repeated.
Columns and labels:
[1] = target: gp120, the major envelope glycoprotein of HIV-I (radioiodinated 125I-gp120; unlabeled purified gp120) (HIV-1); test: saturation binding of 125I-gp120 in solution, immunoprecipitation with OKT4, Scatchard analysis
[2] = target: HIV-1 strain HTLV-IIIB (virus grown in H9 cells; envelope glycoprotein gp120 on the virus) (HIV-1 strain HTLV-IIIB) (UniProt P04578); test: cell-based or functional assay

| Substance | Kd [1] [nM] | Indirect immunofluorescence (% positive cells), 1:4 inhibitor supernatant (% positive cells) [2] | Indirect immunofluorescence (% positive cells), undil. inhibitor supernatant (% positive cells) [2] | Reverse transcriptase (cpm/ml x 10^5), 1:4 inhibitor supernatant [2] | Reverse transcriptase (cpm/ml x 10^5), undil. inhibitor supernatant [2] |
| --- | --- | --- | --- | --- | --- |
| CD4T (product of pRKCD4T: CD4 fused after residue 368 of mature CD4 to 9 residues coded by pBR322) (from UniProt P01730 26-393) (receptor) | 0.83 | 18 and 16.1 | 0.4 and 0.8 | 594000 cpm/ml and 372000 cpm/ml | 11000 cpm/ml and 15000 cpm/ml |
| gDCD4T (first 27 residues of mature HSV type I gD glycoprotein fused to mature CD4T; product of pRKGDCD4T) (from UniProt Q69091 1-27; P01730 1-368) (receptor) | 0.72 | 26.8 and 36.1 | – | 992000 cpm/ml and 1.13e+06 cpm/ml | 14000 cpm/ml and 23000 cpm/ml |

— patent EP0832971B1
